To fix the notation:
B1: CIB2-V5 (calcium and integrin-binding protein 2, V5 tagged, wild type) [human] / TMC1-EGFP (EGFP tagged human full length TMC1) [human] (parent complex)
chain 1: MGNKQTIFTEEQLDNYQDCTFFNKKDILKLHSRFYELAPNLVPMDYRKSPIVHVPMSLIIQMPELRENPFKERIVAAFSEDGEGNLTFNDFVDMFSVLCESAPRELKANYAFKIYDFNTDNFICKEDLELTLARLTKSELDEEEVVLVCDKVIEEADLDGDGKLGFADFEDMIAKAPDFLSTFHIRI
chain 2: MSPKKVQIKVEEKEDETEESSSEEEEEVEDKLPRRESLRPKRKRTRDVINEDDPEPEPEDEETRKAREKERRRRLKRGAEEEEIDEEELERLKAELDEKRQIIATVKCKPWKMEKKIEVLKEAKKFVSENEGALGKGKGKRWFAFKMMMAKKWAKFLRDFENFKAACVPWENKIKAIESQFGSSVASYFLFLRWMYGVNMVLFILTFSLIMLPEYLWGLPYGSLPRKTVPRAEEASAANFGVLYDFNGLAQYSVLFYGYYDNKRTIGWMNFRLPLSYFLVGIMCIGYSFLVVLKAMTKNIGDDGGGDDNTFNFSWKVFTSWDYLIGNPETADNKFNSITMNFKEAITEEKAAQVEENVHLIRFLRFLANFFVFLTLGGSGYLIFWAVKRSQEFAQQDPDTLGWWEKNEMNMVMSLLGMFCPTLFDLFAELEDYHPLIALKWLLGRIFALLLGNLYVFILALMDEINNKIEEEKLVKANITLWEANMIKAYNASFSENSTGPPFFVHPADVPRGPCWETMVGQEFVRLTVSDVLTTYVTILIGDFLRACFVRFCNYCWCWDLEYGYPSYTEFDISGNVLALIFNQGMIWMGSFFAPSLPGINILRLHTSMYFQCWAVMCCNVPEARVFKASRSNNFYLGMLLLILFLSTMPVLYMIVSLPPSFDCGPFSGKNRMFEVIGETLEHDFPSWMAKILRQLSNPGLVIAVILVMVLAIYYLNATAKGQKAANLDLKKKMKMQALENKMRNKKMAAARAAAAAGRQ

Our source for the response values is publication PMC5491523 (2017).

Variants of B1 are the subject of this experiment. Description: FRET; cells co-expressing EGFP tagged human TMC1 (donor) and V5 tagged human CIB2; parent: 22; read off a plot.
Consider chain 1 MGNKQTIFTEEQLDNYQDCTFFNKKDILKLHSRFYELAPNLVPMDYRKSPIVHVPMSLIIQMPELRENPFKERIVAAFSEDGEGNLTFNDFVDMFSVLWESAPRELKANYAFKIYDFNTDNFICKEDLELTLARLTKSELDEEEVVLVCDKVIEEADLDGDGKLGFADFEDMIAKAPDFLSTFHIRI [chain 1 C99W], for which the response is ~5%.
In the case of chain 1 MGNKQTIFTEEQLDNYQDCTFFNKKDILKLHSRFYELAPNLVPMDYRKSPIVHVPMSLIIQMPELRENPFKERIVAAFSEDGEGNLTFNDFVDMFSVLCESAPRELKANYAFKIYDFNTDNFICKEDLELTLARLTKSELDEEEVVLVCDKVIEEADLDGDGKLGFADFEDMIAKAPDFLSTFHIWI [chain 1 R186W], the response is ~19%.
In the case of chain 1 MGNKQTIFTEEQLDNYQDCTFFNKKDILKLHSRFYELAPNLVPMDYRKSPIVHVPMSLIIQMPELWENPFKERIVAAFSEDGEGNLTFNDFVDMFSVLCESAPRELKANYAFKIYDFNTDNFICKEDLELTLARLTKSELDEEEVVLVCDKVIEEADLDGDGKLGFADFEDMIAKAPDFLSTFHIRI [chain 1 R66W] it was ~19%; in that of chain 1 MGNKQTIFTEEQLDNYQDCTFFNKKDILKLHSRFYELAPNLVPMDYRKSPIVHVPMSLIIQMPDLRENPFKERIVAAFSEDGEGNLTFNDFVDMFSVLCESAPRELKANYAFKIYDFNTDNFICKEDLELTLARLTKSELDEEEVVLVCDKVIEEADLDGDGKLGFADFEDMIAKAPDFLSTFHIRI [chain 1 E64D], ~6.5%.
In the case of chain 1 MGNKQTIFTEEQLDNYQDCTFFNKKDILKLHSRFYELAPNLVPMDYRKSPIVHVPMSLIIQMPELRENPFKERIVAAFSEDGEGNLTFNDSVDMFSVLCESAPRELKANYAFKIYDFNTDNFICKEDLELTLARLTKSELDEEEVVLVCDKVIEEADLDGDGKLGFADFEDMIAKAPDFLSTFHIRI [chain 1 F91S] it was ~3%.
On to chain 1 MGNKQTIFTEEQLDNYQDCTFFNKKDILKLHSRFYELAPNLVPMDYRKSPIVHVPMSLIIQMPELRENPFKERIVAAFSEDGEGNLTFNDFVDMFSVLCESAPRELKANYAFKIYDFNTDNFTCKEDLELTLARLTKSELDEEEVVLVCDKVIEEADLDGDGKLGFADFEDMIAKAPDFLSTFHIRI [chain 1 I123T], for which the response was ~18%.
